According to the supplement of paper PMC12764529:
± gives the half width of the 95% confidence interval.

Test: folding stability dG unfold from trypsin proteolysis; higher = more stable
Summary of the method: (§1)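 Mini-proteins designed to be under 80 residues and free of cysteine were carried in a PA-tagged cDNA display construct and digested with trypsin and with chymotrypsin. Each protease was applied at 11 threefold-diluted concentrations, alongside a no-protease condition, before sequencing. K50 came from Bayesian fitting of the sequencing counts, and unfolding free energy was obtained by comparing it with a sequence-predicted unfolded-state K50 and a shared folded-state K50, for each protease separately or for both together. Designs were retained only if their AlphaFold2 dimer inter-PAE exceeded 15.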
For “SAGGGDWYKVTVKVDGNPEVAEALVEKLLEEVGEEVVFEPRPGEQTVTFYVPKELLPLLEELGIEVEPSAGG [r13_156_TrMRF]”, the “folding stability dG unfold” value was 2.24 ± 0.11 kcal/mol. With “TPLTTSTTTVPPSEIATPVTFNAPLSPDTSVTITTYDSATGTTSPVFSTTSASVTLTDLPNVSTATVVVVSS [r1_224_JUSTAS]” the “folding stability dG unfold” value was 0.702 ± 0.018 kcal/mol. For “SAGGSAGGSAMTPVTIKVTLTNPATGSTTTKTIYVPEPNPSVEEIKKKLPSDWTVTSITLSSAGGSAGGSAG [r3_80_JUSTAS]”, the “folding stability dG unfold” value was 1.23 ± 0.045 kcal/mol. For “SAKKTIVVPVEKLKELLDALKEAGYEVKVEYNKENPVVTVTITVKDKNGKELKIELVVDKKTGLVTIKLSAG [r14_169_TrROS_Hall]”, the “folding stability dG unfold” value was 1.97 ± 0.077 kcal/mol. For “SAGGSMGKTPDGGEVEFFEKPEENLIFAVVKHPDGSYYVAVFKKDEDKIELIDVKEVPEGEIEELASAGGSA [r2_336_TrMRF]”, the “folding stability dG unfold” value was 1.26 ± 0.089 kcal/mol. In the case of “SAGGKYVMFPFDSPEDLKDLLPPGYPVEIHMMPPKGKHRTRTFTPDEIKLELPPGENFYFMIKVKPPDSAGG [r13_461_TrROS]”, the “folding stability dG unfold” value is reported as 1.55 ± 0.16 kcal/mol. In the case of “SAGGSAGGSAGGKKIRIVVPKENLEKIEELAKKLGPDVKIVKVEYFKETDYVVVEVEVKSAGGSAGGSAGGS [r10_23_TrROS_Hall]”, the “folding stability dG unfold” value is reported as 2.16 ± 0.06 kcal/mol. In the case of “SALKISVTVDPDGPTATATLELYNPETGKPTTLTATIHRLPDGSYLVTIHFPSNNKTITFTVPEDGVITLSA [r9_1220_TrMRF]”, the “folding stability dG unfold” value is reported as 2.38 ± 0.09 kcal/mol. For “SAGGLEELAKEIADDLQKRNPDMNIEVQVEVHEYKIPPGQKMRHPDGEEKEVPPGQKVYMFTIRVTPSAGGS [r16_357_TrROS]”, the “folding stability dG unfold” value was 0.758 ± 0.11 kcal/mol. For “SADVVVIHARSPEELRAALEEARKEGKTVRIVVSREELDELKALLPEDVKIEVLKNENGEELVVIEVKVSAG [r14_127_TrROS_Hall]”, the “folding stability dG unfold” value was 4.32 ± 0.23 kcal/mol. For “SSATVTFTVELPDDSVIVSVRIDAEEYDPGPPWVRVTIEVEIYDKNGELLATLRFEFLLPREVLEELRKSSA [r9_234_TrMRF]”, the “folding stability dG unfold” value was 4.23 ± 0.14 kcal/mol.

Test: folding stability dG unfold from chymotrypsin proteolysis; higher = more stable
Summary of the method: as §1
For “SAGGSAGGSPANIKITTTLDTETGYLTIVAYNPATGKVTVLTAKIYGNVPHIDGLEALFGALGSAGGSAGGS [r20_131_TrMRF]”, the “folding stability dG unfold” value was 3.02 ± 0.078 kcal/mol. With “SAGGSAGGSAGGMPTYEVTLEPDPTGGDVYTVTVTFPDGSTVTRNATPAELKAEGLTVKVSAGGSAGGSAGG [r7_14_JUSTAS]” the “folding stability dG unfold” value was 0.88 ± 0.044 kcal/mol. With “SAGGSAGGGMSMEELKTVDYPLVVTVPLPDGSTVTVSAKVPAEDLDKAIPEVEERAKALAEEGASAGGSAGG [r6_903_JUSTAS]” the “folding stability dG unfold” value was 1.26 ± 0.038 kcal/mol. In the case of “SAGKKKIKIKLENGETKTLEIKPGETVEITFPNGLKATITKVKDGKIEIKVKEVYVKDKNGKWKKLKDLSAG [r5_417_TrROS_Hall]”, the “folding stability dG unfold” value is reported as 2.6 ± 0.17 kcal/mol. For “EAFEKAIEAAIEAAEKGEKETEITLPLPDGKAIRVHATVEVKDGKPVRVDIHVELYGPNNVPYPFTLTITAS [r1_254_TrMRF]”, the “folding stability dG unfold” value was 2.83 ± 0.13 kcal/mol. For “SAGGEEVVEEPPPPEVEVIEIRDAETDRTVTLVYNKDTGKLFLFDEDTGLVYEFDVDGRLVRVERLPPSAGG [r13_101_TrROS_Hall]”, the “folding stability dG unfold” value was 4.48 ± 0.1 kcal/mol. For “SAGGSAGGSAGGSMVKVEKNGEGVVTTTTKYFFYPSTGKWSSETITTTKKVPKDEPFPLSAGGSAGGSAGGS [r4_215_JUSTAS]”, the “folding stability dG unfold” value was -0.0539 ± 0.33 kcal/mol. With “SAGGSAGGSAMKTSSGTVSFPDSTVKLSYENFGDGSVKKSVVEVVSRPPPPPVPPSNPHYLQSAGGSAGGSA [r18_176_JUSTAS]” the “folding stability dG unfold” value was 0.567 ± 0.22 kcal/mol. In the case of “SAGGSASSMPVTLTLLLTRPDGTPLTLPFEAETLEEAIERGTALAQELIAELGDPNMKITGLEVVPSAGGSA [r15_698_JUSTAS]”, the “folding stability dG unfold” value is reported as 1.44 ± 0.092 kcal/mol. With “SAGSAEELKEKIREELRERLAKELGYPNIEIKKVEVLKYDPETGTITVKVELKLPDGKELTLTITVPVKSAG [r5_20_JUSTAS]” the “folding stability dG unfold” value was 3.63 ± 0.29 kcal/mol. For “SAGGMERKTLTVNVPASVPASELLSLLEGYGDVLLVLGNGEVLHIKRDDAPGLEGLPLSDDDVLELYYSAGG [r13_399_TrMRF]”, the “folding stability dG unfold” value was 1.23 ± 0.059 kcal/mol. With “SAGGSAGGSAGKVVLYLPGDGTAWVLKVGDGEAVLEAEPEKVEELLEKIPGTEAVPVPGLSAGGSAGGSAGG [r11_57_TrMRF]” the “folding stability dG unfold” value was -0.0929 ± 0.23 kcal/mol. For “SAMKYTITVKGDIESVRNFLLDKLDFDIEVSSTPDGTTVITITMDEEKVSELKELLKAHPNFPTTVNKESAG [r14_521_JUSTAS]”, the “folding stability dG unfold” value was 4.12 ± 0.044 kcal/mol. For “SAGVVVRPGEPVPFYVVRVETELRTRPRPDGSEVTTVETRVEVRPYTVTVGPVPVVEVPPDATDPADAASAG [r5_770_TrMRF]”, the “folding stability dG unfold” value was 3.96 ± 0.17 kcal/mol. With “KIEIVEIKKENGKITIKVKNPIPNAKLIIYLFNPKGEIVSAKTHPGPEVELEIEVPENESFSVLVKLFPPKS [r1_382_TrMRF]” the “folding stability dG unfold” value was 4.24 ± 0.083 kcal/mol. With “SAGGSAGGSAGGKPKLTLTLTLKRTVKNKNGKTTEKTLTLTLTFDSKEEAENALKELGFSAGGSAGGSAGGS [r10_1062_TrROS_Hall]” the “folding stability dG unfold” value was 2.92 ± 0.042 kcal/mol. In the case of “SAGGMVEITATVGSPDPSLTDEEIAERILKELGLDPEIVEVTFLERRLVPDAAGRVRVVVEMKFLVPEKSAG [r5_528_JUSTAS]”, the “folding stability dG unfold” value is reported as 4.26 ± 0.16 kcal/mol. For “SAGGSMVVVVKLKDGKKIELSVEELKKLAEELGLEPEEEDKEERLERIAKALAEKLGLEVEKVEVLSAGGSA [r2_83_TrROS_Hall]”, the “folding stability dG unfold” value was 2.74 ± 0.22 kcal/mol. For “SAGGSAAIPLEFELPNGERVTVYYDPETGLFTVEVEVRFGNEKGEPPEVRFRFEVDSLVDLLDFLASAGGSA [r15_31_TrMRF]”, the “folding stability dG unfold” value was 3.88 ± 0.039 kcal/mol. In the case of “SAGGAPVTTFSLTLENPETGLNWTSTSATYDPATGTLTLNLKRPQSGESLTLTTPVTVVSPEEPELASAGGS [r8_193_JUSTAS]”, the “folding stability dG unfold” value is reported as 0.819 ± 0.084 kcal/mol. In the case of “SAGGSAGGSAGKVTLTIPFTNEDGTKYIAEFTFDELEVEEDVEIKIVSLGENFDLVLKPESAGGSAGGSAGG [r11_733_TrMRF]”, the “folding stability dG unfold” value is reported as 1.67 ± 0.041 kcal/mol.
